Reference: article PMC12117036

Molecular target: rhodamine-labeled rabbit skeletal muscle actin (rabbit) (UniProt P68135)

espin (ectoplasmic specialization protein), recombinant protein, sequence (B1AK53 whole entry): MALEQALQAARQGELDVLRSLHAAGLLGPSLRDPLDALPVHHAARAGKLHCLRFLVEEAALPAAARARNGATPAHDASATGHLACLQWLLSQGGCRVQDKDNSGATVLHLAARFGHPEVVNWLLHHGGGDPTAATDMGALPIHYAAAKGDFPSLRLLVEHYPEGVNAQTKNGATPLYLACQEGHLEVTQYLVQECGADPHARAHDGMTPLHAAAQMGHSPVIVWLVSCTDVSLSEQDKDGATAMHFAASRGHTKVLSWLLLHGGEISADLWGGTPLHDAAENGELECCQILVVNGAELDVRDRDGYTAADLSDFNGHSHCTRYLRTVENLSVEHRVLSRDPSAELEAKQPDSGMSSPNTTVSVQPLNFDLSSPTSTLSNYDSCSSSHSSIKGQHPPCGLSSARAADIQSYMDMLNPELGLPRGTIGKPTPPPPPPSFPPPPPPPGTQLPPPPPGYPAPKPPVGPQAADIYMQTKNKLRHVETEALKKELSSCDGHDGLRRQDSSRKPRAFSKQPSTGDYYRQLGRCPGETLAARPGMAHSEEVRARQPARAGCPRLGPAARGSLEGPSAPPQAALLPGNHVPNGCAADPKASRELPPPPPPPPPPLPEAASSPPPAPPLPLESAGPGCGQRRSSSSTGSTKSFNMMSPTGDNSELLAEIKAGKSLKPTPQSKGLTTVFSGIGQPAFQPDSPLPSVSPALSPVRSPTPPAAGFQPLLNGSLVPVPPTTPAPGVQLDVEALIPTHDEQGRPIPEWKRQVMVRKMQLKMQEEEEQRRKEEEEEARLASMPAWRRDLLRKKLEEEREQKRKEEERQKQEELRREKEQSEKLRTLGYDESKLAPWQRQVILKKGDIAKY

minimum concentration of purified espin at which bundling of pre-polymerized rhodamine-actin filaments (3 uM) was seen by confocal imaging (Fig. 4L): 100 nM
Substance: espin (ectoplasmic specialization protein), recombinant protein (from UniProt B1AK53 1-854) (natural protein)
